# Assay results: PMC5839504 (Cell, 2017)
# T1: S. cerevisiae Ku80vWA (residues 2-200) (S. cerevisiae, UniProt Q04437 2-200)
# T1 sequence (looked up): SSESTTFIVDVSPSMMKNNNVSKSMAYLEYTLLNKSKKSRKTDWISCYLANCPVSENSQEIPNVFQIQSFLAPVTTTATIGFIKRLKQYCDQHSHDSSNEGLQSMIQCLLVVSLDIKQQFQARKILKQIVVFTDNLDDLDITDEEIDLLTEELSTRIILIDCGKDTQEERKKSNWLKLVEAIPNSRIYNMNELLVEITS
# T2: S. cerevisiae Ku70/80 heterodimer (S. cerevisiae, UniProt P32807 1-602; Q04437 1-629)
# T2 sequence (looked up) 1: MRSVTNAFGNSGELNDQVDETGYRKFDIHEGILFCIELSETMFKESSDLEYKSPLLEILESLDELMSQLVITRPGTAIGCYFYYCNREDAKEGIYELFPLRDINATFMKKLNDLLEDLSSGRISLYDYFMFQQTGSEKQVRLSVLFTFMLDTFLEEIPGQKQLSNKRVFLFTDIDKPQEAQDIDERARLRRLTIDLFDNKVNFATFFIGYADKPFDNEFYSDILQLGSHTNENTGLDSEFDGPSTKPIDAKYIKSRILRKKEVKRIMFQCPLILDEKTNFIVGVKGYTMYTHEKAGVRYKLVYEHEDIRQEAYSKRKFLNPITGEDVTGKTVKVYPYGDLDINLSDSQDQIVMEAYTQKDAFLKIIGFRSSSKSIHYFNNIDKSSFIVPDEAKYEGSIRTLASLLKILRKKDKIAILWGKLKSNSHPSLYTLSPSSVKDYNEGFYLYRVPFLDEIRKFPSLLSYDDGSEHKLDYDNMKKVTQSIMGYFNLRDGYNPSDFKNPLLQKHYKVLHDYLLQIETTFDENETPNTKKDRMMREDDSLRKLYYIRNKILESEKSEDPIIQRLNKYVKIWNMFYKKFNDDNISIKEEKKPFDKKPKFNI
# T2 sequence (looked up) 2: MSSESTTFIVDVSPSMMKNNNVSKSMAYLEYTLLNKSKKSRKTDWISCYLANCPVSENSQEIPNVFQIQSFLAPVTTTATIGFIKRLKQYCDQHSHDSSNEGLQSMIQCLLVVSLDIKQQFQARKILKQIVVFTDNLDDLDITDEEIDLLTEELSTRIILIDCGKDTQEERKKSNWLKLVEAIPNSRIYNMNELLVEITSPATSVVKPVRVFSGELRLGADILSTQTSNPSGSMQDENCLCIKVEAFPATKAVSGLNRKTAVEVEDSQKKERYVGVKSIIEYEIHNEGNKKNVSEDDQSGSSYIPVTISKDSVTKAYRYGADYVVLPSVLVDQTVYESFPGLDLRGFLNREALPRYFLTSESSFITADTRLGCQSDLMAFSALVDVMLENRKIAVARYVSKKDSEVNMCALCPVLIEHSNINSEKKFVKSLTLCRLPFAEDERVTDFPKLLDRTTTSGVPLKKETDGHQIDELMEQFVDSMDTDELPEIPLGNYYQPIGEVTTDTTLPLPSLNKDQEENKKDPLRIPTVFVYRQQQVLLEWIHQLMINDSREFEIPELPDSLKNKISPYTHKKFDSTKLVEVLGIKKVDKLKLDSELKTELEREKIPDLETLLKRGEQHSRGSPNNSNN
# B1: N-terminal domain of K. lactis Est1 (KlEst1, residues 2-600) (domain or fragment)
# chain: DQKLNTDLQETFSGFQKQLQSVLETDFFRDDSLMKGAIQMIHSKIMQMLLQSLIPEGLHQDITTDTGSKKSEIRSSDAHRILDLTWKHVHYPIFKYFQNWRNRNVAEGSRPNYAGHRQLNSILQKIFPQIHKLYYSTLELIFANYNLTALIPSDTRSKLNISTKKLNDDASNVLKPEDSFSIDCVMASQRCLLYIGCSQRYKIIMEHLSDRYQQADFQKPLRYLDIASTIVPSVGETFLQRGICYTHTKNFGNAAYQFVRSSLSRLPSDAGIPNFTNLLGDPNGSLFKKLLNSLDDLKVQETIKKRIINMEIMEFYILPLIGSHIFPQTWKNNRHSDRLKHFQTLLFDKIEIRYIKNISMIFQDLILLIGSFHMYQMINGVSSNTTSSAATIMPNDKTLMNGNGSANSINNSGNSNIRSIQSETKFLEFIFKFFTHLIDKVIMKEFKNCEMFQYLAMARIMMCWIKSHKNVLKFAHRSTSFCQSMVNLTNELLSSNDLSISFEHLHRPTRDYFYEEDIMLKEFGPTKFTLSDFNDEKLLSMDNLPDRLVGKSKNKLTAKEEHSSRVQVLVYSNKKFLEKNCCGFKLDTEKKRYVHTAVK
# Tests used:
# [1] = biological target: T1, S. cerevisiae Ku80vWA (residues 2-200); assay: ITC
# [2] = biological target: T2, S. cerevisiae Ku70/80 heterodimer; assay: pull-down
# [3] = biological target: KlCdc13EBM-N (KlCdc13 residues 213-222) (Kluyveromyces lactis); assay: ITC
# [4] = biological target: K. lactis Cdc13EBM (KlCdc13 residues 213-240) (Kluyveromyces lactis); assay: ITC
binder,measurement,setting,value
"EKISNSKLLSLLRSKT (peptide, UniProt P11978 100-115, looked up) [S. cerevisiae Sir4KBM (residues 100-115)]",Kd,[1],5.1 µM
"EKISNSKLRSLLRSKT (peptide, UniProt P11978 100-115, looked up) [Sir4KBM L108R]",binding result,[1],binds
"EKISNSKLLSLLRSKT (peptide, UniProt P11978 100-115, looked up) [Sir4KBM (GST pull-down)]",binding result,[2],binds
B1,Kd,[3],15.3 µM
same,Kd,[4],5.9 µM
